Data reported in PMC9693254.
Changes are numbered by the printed parent chain. Names and notes keep the numbering of the source.

B1: cocoonase (CCN), mature form (Bombyx mori; K85G) (protein)
chain: IVGGEEISINKVPYQAYLLLQKDNEYFQCGGSIISKRHILTAAHCIEGISGVTVRIGSSNSNKGGTVYTAKSKVAHPKYNSKTKNNDFAIVTVNKDMAIDGKTTKIITLAKEGSSVPDKTKLLVSGWGATSEGGSSSTTLRAVHVQAHSDDECKKYFRSLTSNMFCAGPPEGGKDSCQGDSGGPAVKGNVQLGVVSFGVGCARKNNPGIYAKVSAAAKWIKST
B2: cocoonase (CCN), mature form (Bombyx mori; K153G/K155A/K85G) (protein)
chain: B1 chain with K119G, K121A

Substrate: CCOC(=O)[C@H](CCCNC(=N)N)NC(=O)c1ccccc1
Assay: purified protein
Settings: 50 mM Tris/HCl pH 8.0, 25 mM NaCl, 1 mM EDTA, 25 °C, substrate 25–100 μM, apparent Km, numbering of proCCN
[1] = CCN' auto-processed from proCCN'
[2] = mature CCN' prepared from [K8D,K63G,K131G,K133A]-proCCN (K8D lies in the removed propeptide,

Protein | Km | Vmax | Km [1] | Vmax [1] | Km [2] | Vmax [2]
B1 | 400 µM | 0.006 µM/min | – | – | – | –
B2 | – | – | 370 µM | 0.0084 µM/min | 920 µM | 0.0276 µM/min
